Experimental data published in article PMC7802198, “A novel humanized Frizzled-7-targeting antibody enhances antitumor effects of Bevacizumab against triple-negative breast cancer via blocking Wnt/β-catenin signaling pathway” (Journal of Experimental & Clinical Cancer Research : CR, 2021).

Columns and labels:
Test in all cases: BLI; Fortebio Octet Red96; SHH002-hu1 captured on Anti-Human Fab-CH1 2nd Generation Sensor; rhFzd1/2/5/7/8 in solution at different concentrations (rhFzd7: 6.25, 25, 100, 400 nmol/L); KB buffer (0.1% BSA + 0.05% Tween 20 in PBS, pH 7.2); KD from kd/ka
Conditions in all cases: both partners purified
rhFzd7 = molecular target: T1, rhFzd7 (Homo sapiens, UniProt O75084)
T1 construct: Frizzled-7, human, recombinant; the discussion says only that the recombinant human Fzd7 extracellular CRD protein was used to immunize mice; also called recombinant human Frizzled-7

rhFzd1 = molecular target: T2, rhFzd1 (Homo sapiens, UniProt Q9UP38)
T2 construct: Frizzled-1, human, recombinant

rhFzd2 = molecular target: T3, rhFzd2 (Homo sapiens, UniProt Q14332)
T3 construct: Frizzled-2, human, recombinant

rhFzd5 = molecular target: T4, rhFzd5 (Homo sapiens, UniProt Q13467)
T4 construct: Frizzled-5, human, recombinant

rhFzd8 = molecular target: T5, rhFzd8 (Homo sapiens, UniProt Q9H461)
T5 construct: Frizzled-8, human, recombinant
T5 sequence (Q9H461 28-694): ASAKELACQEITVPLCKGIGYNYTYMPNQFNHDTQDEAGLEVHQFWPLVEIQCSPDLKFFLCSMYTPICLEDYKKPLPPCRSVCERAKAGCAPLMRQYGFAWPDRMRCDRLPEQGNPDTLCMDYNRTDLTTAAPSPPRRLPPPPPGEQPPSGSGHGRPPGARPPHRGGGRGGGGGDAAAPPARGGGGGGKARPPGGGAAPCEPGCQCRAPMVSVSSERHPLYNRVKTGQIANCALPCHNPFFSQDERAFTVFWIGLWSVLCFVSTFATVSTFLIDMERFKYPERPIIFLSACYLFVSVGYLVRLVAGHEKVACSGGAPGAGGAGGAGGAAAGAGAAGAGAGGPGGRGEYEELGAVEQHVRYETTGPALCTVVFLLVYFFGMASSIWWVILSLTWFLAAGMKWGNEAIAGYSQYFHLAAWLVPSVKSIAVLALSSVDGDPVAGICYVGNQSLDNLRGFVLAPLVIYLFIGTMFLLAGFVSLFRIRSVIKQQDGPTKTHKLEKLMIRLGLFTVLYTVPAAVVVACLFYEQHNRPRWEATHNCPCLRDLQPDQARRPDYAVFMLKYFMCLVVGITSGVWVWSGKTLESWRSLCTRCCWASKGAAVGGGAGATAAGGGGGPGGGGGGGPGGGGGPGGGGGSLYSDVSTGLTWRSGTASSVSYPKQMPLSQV

T3 sequence (Q14332 24-565): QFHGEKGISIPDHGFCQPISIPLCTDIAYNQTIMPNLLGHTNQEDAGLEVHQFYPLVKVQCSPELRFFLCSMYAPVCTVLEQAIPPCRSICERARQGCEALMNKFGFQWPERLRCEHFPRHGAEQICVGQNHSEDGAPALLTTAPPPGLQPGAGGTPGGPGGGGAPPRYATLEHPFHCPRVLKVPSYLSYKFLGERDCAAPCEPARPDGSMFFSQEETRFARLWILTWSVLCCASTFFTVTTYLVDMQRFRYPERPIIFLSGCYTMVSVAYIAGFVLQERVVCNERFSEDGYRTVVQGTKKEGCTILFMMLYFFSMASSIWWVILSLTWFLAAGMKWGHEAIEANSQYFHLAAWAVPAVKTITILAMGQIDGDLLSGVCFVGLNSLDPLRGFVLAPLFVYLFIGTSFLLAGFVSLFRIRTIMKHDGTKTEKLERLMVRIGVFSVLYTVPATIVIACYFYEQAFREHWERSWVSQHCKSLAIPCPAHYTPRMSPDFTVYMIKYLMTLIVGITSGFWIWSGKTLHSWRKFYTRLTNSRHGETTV
T4 sequence (Q13467 27-585): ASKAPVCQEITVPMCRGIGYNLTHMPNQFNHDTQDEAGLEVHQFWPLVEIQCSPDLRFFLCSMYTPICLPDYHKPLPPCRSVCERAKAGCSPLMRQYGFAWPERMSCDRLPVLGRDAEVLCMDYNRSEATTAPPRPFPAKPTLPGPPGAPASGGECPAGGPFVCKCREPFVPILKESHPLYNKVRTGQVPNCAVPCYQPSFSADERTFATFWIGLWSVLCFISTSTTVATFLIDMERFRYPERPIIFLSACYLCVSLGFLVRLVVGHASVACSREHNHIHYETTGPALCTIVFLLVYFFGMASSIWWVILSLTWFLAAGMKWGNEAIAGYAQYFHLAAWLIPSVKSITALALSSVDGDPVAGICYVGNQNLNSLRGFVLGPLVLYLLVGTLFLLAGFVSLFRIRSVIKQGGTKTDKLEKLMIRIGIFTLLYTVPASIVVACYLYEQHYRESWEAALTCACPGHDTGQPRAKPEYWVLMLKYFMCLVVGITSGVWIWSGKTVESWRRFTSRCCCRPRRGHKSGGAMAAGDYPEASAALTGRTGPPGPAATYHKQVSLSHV
T2 sequence (Q9UP38 70-647): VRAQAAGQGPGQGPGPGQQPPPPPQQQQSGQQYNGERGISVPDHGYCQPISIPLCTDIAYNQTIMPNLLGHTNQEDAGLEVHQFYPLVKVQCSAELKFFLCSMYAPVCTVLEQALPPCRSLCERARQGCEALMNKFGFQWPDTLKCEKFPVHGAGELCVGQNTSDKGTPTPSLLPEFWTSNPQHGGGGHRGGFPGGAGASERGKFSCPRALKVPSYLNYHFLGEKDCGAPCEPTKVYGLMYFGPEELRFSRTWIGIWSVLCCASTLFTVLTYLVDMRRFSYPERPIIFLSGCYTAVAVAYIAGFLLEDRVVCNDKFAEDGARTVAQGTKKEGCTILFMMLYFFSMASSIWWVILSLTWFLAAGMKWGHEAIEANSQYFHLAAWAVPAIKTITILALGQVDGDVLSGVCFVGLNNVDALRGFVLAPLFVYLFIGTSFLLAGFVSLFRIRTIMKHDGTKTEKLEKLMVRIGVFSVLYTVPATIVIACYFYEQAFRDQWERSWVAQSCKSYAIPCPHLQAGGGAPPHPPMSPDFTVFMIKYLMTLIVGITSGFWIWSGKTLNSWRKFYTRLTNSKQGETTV

B1: SHH002-hu1 (antibody, V domains shown)
VH: QVQLVQSGAEVKKPGASVKMSCKASGYTFTTYTMHWVRQAPGQGLEWIGYINPRSGYTNYNQKFQGRATVTADKSTSTAYMELSSLRSEDTAVYYCARRGYFDYWGQGTTVTVSS
VL: DIQLTQSPSSLSVSVGDRATITCRASESVDDYGNTFMHWYQQKPGKAPKLLIYLASNLQSGVPSRFSGSGSRTDFTLTISSVQAEDAATYYCQQNNEDPYTFGQGTKLEIK
notes: Whole antibody of 150 kDa (HC 50 kDa, LC 25 kDa); humanization degree 98%; detected with anti-human IgG H&L; also called humanized antibody targeting Fzd7; humanized anti-Fzd7 antibody
B1 was tested, and the Kd (rhFzd7) was under 1 pM, the koff (rhFzd7) was under 1e-07 s⁻¹ and the kon (rhFzd7) was 400000 M⁻¹ s⁻¹. B1: no binding (rhFzd1); no binding (rhFzd2); no binding (rhFzd5). B1: no binding (rhFzd8).
